Assay results published in patent publication US20140090111A1, “Plant Hormone Biosensors” (Carnegie Institution of Washington, priority 2012, published 2014).

Assay: FRET fluorescence emission response of GA biosensors to GA
Type: binding
Settings: FIG. 9
Excerpt: FIG. 9 depicts the fluorescence emission curves of a GA biosensor in response to GA. Also depicted are the GA responses of biosensor mutant variants. A: GA response of SMSX39L10.DR43 (RGA2 and GID1C sub-domains, L10 linker, Venus and Cerulean fluorescent proteins).
Expression and screening hormone biosensors using Saccharomyces cerevisiae as a eukaryotic host cell to better express the eukaryotic hormone binding domains. S. cerevisiae can be adapted to a high-throughput expression system. A new library of GATEWAY™ destination vectors was created for expression in yeast (Table IV, FIG. 2). Although expression of SMS in S. cerevisiae was successful as determined by fluorescence emissions, purification of sensors from the host cells was not possible because of cleavage of the hormone binding domains of the SMS proteins upon cell lysis, which can be important because the rate of transport of many plant hormones into yeast cells is low. […] SMS proteins were subsequently screened from cell lysates and after purification using metal-affinity chromatography, if the clones included an N-terminal 6HIS tag.
Subsequent experiments identified protocols for yeast cell transformation, culture and lysis, metal-affinity chromatography, and fluorescence analysis after hormone treatment in a 96-well format. Thus, a novel high-throughput platform for creation and screening of SMS had been developed. […]

Molecule	GA affinity / GA response of biosensor
GID1C(S114A): GA biosensor mutant variant, mutation of a GA binding residue of GID1C (protein, UniProt Q940G6 2-344, looked up, variant S114A, within FRET biosensor) Gibberellin receptor GID1C: AGSEEVNLIESKTVVPLNTWVLISNFKLAYNLLRRPDGTFNRHLAEFLDRKVPANANPVNGVFSFDVIIDRQTNLLSRVYRPADAGTSPSITDLQNPVDGEIVPVIVFFHGGAFAHSSANSAIYDTLCRRLVGLCGAVVVSVNYRRAPENRYPCAYDDGWAVLKWVNSSSWLRSKKDSKVRIFLAGDSSGGNIVHNVAVRAVESRIDVLGNILLNPMFGGTERTESEKRLDGKYFVTVRDRDWYWRAFLPEGEDREHPACSPFGPRSKSLEGLSFPKSLVVVAGLDLIQDWQLKYAEGLKKAGQEVKLLYLEQATIGFYLLPNNNHFHTVMDEIAAFVNAECQ	reduced GA affinity
GID1C P98A: GA biosensor mutant variant rendering GID interaction with DELLA constitutive; control (protein, UniProt Q940G6 2-344, looked up, variant P98A, within FRET biosensor, control) Gibberellin receptor GID1C: AGSEEVNLIESKTVVPLNTWVLISNFKLAYNLLRRPDGTFNRHLAEFLDRKVPANANPVNGVFSFDVIIDRQTNLLSRVYRPADAGTSPSITDLQNAVDGEIVPVIVFFHGGSFAHSSANSAIYDTLCRRLVGLCGAVVVSVNYRRAPENRYPCAYDDGWAVLKWVNSSSWLRSKKDSKVRIFLAGDSSGGNIVHNVAVRAVESRIDVLGNILLNPMFGGTERTESEKRLDGKYFVTVRDRDWYWRAFLPEGEDREHPACSPFGPRSKSLEGLSFPKSLVVVAGLDLIQDWQLKYAEGLKKAGQEVKLLYLEQATIGFYLLPNNNHFHTVMDEIAAFVNAECQ	GA non-responsive
